The target of data set [1] is T1, human RXFP1 (Homo sapiens, UniProt Q9HBX9).
T1 construct: OVCAR5 cells expressing endogenous human RXFP1; endogenous in cells; host or cells: OVCAR5 cells
T1 sequence (Q9HBX9 1-757): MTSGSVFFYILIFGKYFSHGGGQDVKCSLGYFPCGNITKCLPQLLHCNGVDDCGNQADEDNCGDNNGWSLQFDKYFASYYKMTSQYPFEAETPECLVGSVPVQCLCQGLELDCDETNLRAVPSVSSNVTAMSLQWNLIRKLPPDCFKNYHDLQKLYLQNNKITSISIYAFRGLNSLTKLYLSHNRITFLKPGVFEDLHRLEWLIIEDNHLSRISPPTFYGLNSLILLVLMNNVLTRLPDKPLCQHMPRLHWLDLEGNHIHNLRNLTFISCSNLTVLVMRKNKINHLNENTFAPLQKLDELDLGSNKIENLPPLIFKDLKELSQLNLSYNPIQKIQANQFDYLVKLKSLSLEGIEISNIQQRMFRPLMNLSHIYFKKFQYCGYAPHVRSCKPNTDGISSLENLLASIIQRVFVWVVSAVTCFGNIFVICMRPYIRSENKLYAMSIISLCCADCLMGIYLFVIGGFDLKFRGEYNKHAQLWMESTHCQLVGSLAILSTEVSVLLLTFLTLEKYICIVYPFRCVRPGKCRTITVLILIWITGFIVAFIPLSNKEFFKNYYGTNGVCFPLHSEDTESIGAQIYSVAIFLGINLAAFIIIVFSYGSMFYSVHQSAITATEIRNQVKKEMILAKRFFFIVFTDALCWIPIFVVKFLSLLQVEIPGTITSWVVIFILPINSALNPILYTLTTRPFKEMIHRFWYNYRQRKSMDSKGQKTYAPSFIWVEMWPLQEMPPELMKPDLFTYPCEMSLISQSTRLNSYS
Description: In vitro OVCAR5 cAMP assay (HTRF). It counts as cell-based. The note with it: OVCAR 5 cells (cAMP); for EC50: Table 2; for Emax: maximal cAMP relative to human relaxin-2, Table 2. The source says: OVCAR5 cells expressing endogenous human RXFP1 were used to test RXFP1 agonist properties of relaxin peptide analogues, and in particular of the peptides of sequence SEQ ID NO: 1-97.
Since RXFP1 is a Gs coupled GPCR, increases in cAMP was used as readout of RXFP1 activation.
Isobutyl methyl xanthine (IBMX) was used to inhibit phosphodiesterase activity facilitating cAMP measurements. HTRF (Homogenous Time Resolved Fluorescence) technology was used to detect cAMP due to its high sensitivity.
In summary, OVCAR5 were grown in regular medium (RPMI) containing 10% fetal calf serum (FCS) and 1% antibiotics (penicillin/streptomycin).
Before the experiments, cells were detached with accutase and incubated for 40 minutes at 37° C. with 1 mM (3-isobutyl-1-methylxanthine) IBMX.
Cells were then distributed in 384 black well plates containing increasing concentrations of the different peptides in a fix volume of medium (without FCS).
After an incubation of 30 min at 37° C. in a humid incubator in 5% CO2, the reaction was stopped by adding a fixed volume of a solution containing a lysis buffer and cAMP-D2 (cAMP labeled with the dye d2) and the anti-cAMP antibody linked to Europium and used for cAMP detection.
Readout of the experiment were performed on a fluorimeter allowing HTRF measurement. Activation curves were generated by plotting the intracellular value of cAMP versus log 10 of the compound concentration.
The 50% activation concentration (EC50) was calculated by nonlinear regression using the sigmoidal dose-response (variable slope) equation with Prism 5 software.
Emax % was determined as the maximal intracellular value of cAMP for test compound (upper limit of cAMP vs concentration curve) divided by the maximal intracellular value of cAMP for human relaxin-2 (H2-R1x) determined in the same test occasion multiplied by 100.
Background: Changes in cAMP serve as a functional read-out for many G protein-coupled receptors.

For data set [2] the following is noted: cited from earlier work.
In data set [3] the target is T2, human RXFP1 (human, UniProt Q9HBX9 1-757).
T2 sequence (looked up): T1 sequence (Q9HBX9 1-757)
Description: cell-based or functional assay.

The target in data set [4] is T2, human RXFP1. Description: cell-based or functional assay. The source holds these as a separate data set.

These results are taken from US20240400638A1, “COMBINATION OF RELAXIN AND VASOPRESSIN ANALOGUES FOR TREATMENT OF RENAL DISORDERS OR CONDITIONS” (River 2 Renal Corp., priority 2021, published 2024).

As usually defined, the EC50 is the concentration needed to bring the measured effect to its halfway point. The low end stands for higher potency in that assay, the high end for lower potency in that assay. As usually defined, the Emax is the greatest response seen or fitted, relative to the assay's reference. The term mortality denotes the share of the test organisms that died.

Numbered stars: 1 amine (or outer) side, 2 acyl side, 3 side chain; on linkers, the order of the positions; unused ones are H or OH. Bridge positions count the residues as written; N and C are the ends. Square brackets hold non-standard residues; d marks the D form. Side chains are listed from the residue outwards. Peptide text beside a SMILES is read from it. * marks the point of attachment. X2 = CCCCCCCCCCCCCCCCCC(=O)N[C@@H](CCC(=O)N[C@@H](CCC(=O)N[C@@H](CCC(=O)NCCCOCCOCCOCCCNC(=O)CCC(=O)NCCCOCCOCCOCCCNC(=O)CCC(=O)NCCCOCCOCCOCCCNC(=O)CCC(=O)NCCCOCCOCCOCCCN*)C(=O)O)C(=O)O)C(=O)O; X1 = CCCCCCCCCCCCCCCC(=O)N[C@@H](CCC(=O)N[C@@H](CCC(=O)N[C@@H](CCC(=O)NCCCOCCOCCOCCCNC(=O)CCC(=O)NCCCOCCOCCOCCCNC(=O)CCC(=O)NCCCOCCOCCOCCCN*)C(=O)O)C(=O)O)C(=O)O; TTDS = 4-[3-[2-[2-(3-aminopropoxy)ethoxy]ethoxy]propylamino]-4-oxo-butanoyl; γGlu = O=C(O)[C@H](CCC(=O)[*:2])N[*:1]; Stearoyl = CCCCCCCCCCCCCCCCCC(=O)*; Palmitoyl = CCCCCCCCCCCCCCCC(=O)*; Cit = NC(=O)NCCC[C@H](N)C(=O)O; Suc = O=C(CCC(=O)[*:2])[*:1]; αMeK = C[C@](N)(CCCCN)C(=O)O; hLys = NCCCCC[C@H](N)C(=O)O; Aib = CC(C)(N)C(=O)O

In data set [1], `CCCCCCCCCCCCCCCCCC(=O)N[C@@H](CCC(=O)N[C@@H](CCC(=O)N[C@@H](CCC(=O)NCCCOCCOCCOCCCNC(=O)CCC(=O)NCCCOCCOCCOCCCNC(=O)CCC(=O)NCCCOCCOCCOCCCNC(=O)CCC(=O)NCCCOCCOCCOCCCNC(=O)CCC(=O)NCCCC[C@H](NC(=O)CNC(=O)[C@H](CCC(=O)O)NC(=O)C(C)(C)NC(=O)C(C)(C)NC(=O)[C@@H](NC(=O)[C@H](CCCCNC(C)=O)NC(=O)[C@H](C)NC(=O)[C@H](CCCNC(=N)N)NC(=O)[C@@H](NC(=O)[C@H](CCCCN)NC(=O)[C@H](CCC(=O)O)NC(=O)[C@H](CCCNC(=N)N)NC(=O)CNC(=O)[C@H](CCC(=O)O)NC(=O)[C@H](CC(C)C)NC(C)=O)C(C)C)[C@@H](C)CC)C(=O)N[C@@H](CO)C(=O)N[C@H](C(=O)N[C@@H](Cc1ccccc1)C(=O)N[C@@H](CO)C(=O)NC(C)(C)C(=O)N[C@@H](CCCNC(=N)N)C(=O)N[C@@H](CCCCN)C(=O)N[C@@H](CCCCNC(C)=O)C(N)=O)[C@@H](C)O)C(=O)O)C(=O)O)C(=O)O` [compound 59] (Ac-LEGREKVRAK(Ac)I[Aib][Aib]EGK([Suc-X2])STFS[Aib]RKK(Ac)-NH2) yielded a concentration for a half-maximal effect (EC50) of 0.09 nM and an Emax of 99%.

In data set [1], `CCCCCCCCCCCCCCCC(=O)N[C@@H](CCC(=O)N[C@@H](CCC(=O)N[C@@H](CCC(=O)NCCCOCCOCCOCCCNC(=O)CCC(=O)NCCCOCCOCCOCCCNC(=O)CCC(=O)NCCCOCCOCCOCCCNC(=O)CCC(=O)NCCCC[C@H](NC(=O)CNC(=O)[C@H](CCC(=O)O)NC(=O)C(C)(C)NC(=O)C(C)(C)NC(=O)[C@@H](NC(=O)[C@H](CCCCNC(C)=O)NC(=O)C(C)(C)NC(=O)[C@H](CCCNC(=N)N)NC(=O)[C@@H](NC(=O)[C@H](CCCCN)NC(=O)[C@H](CCC(=O)O)NC(=O)[C@H](CCCNC(=N)N)NC(=O)CNC(=O)[C@H](CCC(=O)O)NC(=O)[C@H](CC(C)C)NC(C)=O)C(C)C)[C@@H](C)CC)C(=O)N[C@@H](CO)C(=O)N[C@H](C(=O)N[C@@H](Cc1c[nH]c2ccccc12)C(=O)N[C@@H](CO)C(=O)NC(C)(C)C(=O)N[C@@H](CCCNC(=N)N)C(=O)N[C@@H](C)C(=O)N[C@@H](CCCCNC(C)=O)C(N)=O)[C@@H](C)O)C(=O)O)C(=O)O)C(=O)O` [compound 82] (Ac-LEGREKVR[Aib]K(Ac)I[Aib][Aib]EGK([Suc-X1])STWS[Aib]RAK(Ac)-NH2) gave a half-maximal effective concentration (EC50) of 0.54 nM and an Emax of 95%.

Take `NCCCC[C@H](NC(=O)[C@@H]1CCCN1C(=O)[C@@H]1CSSC[C@H](NC(=O)CNC(=O)CNC(=O)CN)C(=O)N[C@@H](Cc2ccc(O)cc2)C(=O)N[C@@H](Cc2ccccc2)C(=O)N[C@@H](CCC(N)=O)C(=O)N[C@@H](CC(N)=O)C(=O)N1)C(=O)NCC(N)=O` [terlipressin, Terlipressin] (H-GGGCYFQNCPKG-NH2; disulfide 4-9): the mortality in data set [2] (at 3 months, patients receiving terlipressin and standard of care (e.g., albumin), Wong et al. 2021) is reported as 51%. In data set [2] (human, in vivo), the “patients requiring discontinuation of treatment for severe side effects” value is recorded as “up to 10%” and the “patients with side effects” value is “up to 40%”.

B1: Relaxin peptide analogue of SEQ ID NO: 57 (peptide)
peptide: Ac-LEGREKVRAK(Ac)I[Aib][Aib]EGK([TTDS-TTDS-TTDS-γGlu-γGlu-γGlu-Palmitoyl])STWS[hLys]RAK(Ac)-NH2
As for B1, in data set [3], the “EC50 (nM), OVCAR 5 cells (cAMP)” value was 0.44 nM and the “EMax, OVCAR 5 cells (cAMP)” value worked out at 98%.

B2: Relaxin peptide analogue of SEQ ID NO: 49 (peptide)
peptide: Ac-LEGREKVRAK(Ac)I[Aib][Aib]EGK([TTDS-TTDS-TTDS-γGlu-γGlu-γGlu-Palmitoyl])STFS[αMeK]RAK-NH2
B2: in data set [3], the “EC50 (nM), OVCAR 5 cells (cAMP)” value was determined as 0.19 nM and the “EMax, OVCAR 5 cells (cAMP)” value is 97%.

B3: Relaxin peptide analogue of SEQ ID NO: 54 (peptide)
peptide: Ac-LEGREKVRAK(Ac)I[Aib][Aib]EGK([TTDS-TTDS-γGlu-γGlu-γGlu-γGlu-Stearoyl])STWS[Aib]RKK(Ac)-NH2
Take B3: in data set [3], the “EC50 (nM), OVCAR 5 cells (cAMP)” value was 0.16 nM and the “EMax, OVCAR 5 cells (cAMP)” value was determined as 96%.

B4: Relaxin peptide analogue of SEQ ID NO: 58 (peptide)
peptide: Ac-LEGREKVRAK(Ac)I[Aib][Aib]EGK([TTDS-TTDS-TTDS-TTDS-γGlu-γGlu-γGlu-Stearoyl])STWS[Aib]RKK(Ac)-NH2
With B4, in data set [3], the “EC50 (nM), OVCAR 5 cells (cAMP)” value was 0.08 nM and the “EMax, OVCAR 5 cells (cAMP)” value is 98%.

B5: AcB7-33 C11.23S (peptide)
peptide: Ac-VIKLSGRELVRAQIAISGMSTWSKRSL-NH2
B5: in data set [4], the “EC50 (nM), cAMP assay in OVCAR 5 cells” value stood at 929 nM and the “Emax, cAMP assay in OVCAR 5 cells” value came out at 70%.

B6: Relaxin peptide analogue of SEQ ID NO: 48 (peptide)
peptide: Ac-LEGREKVRAQI[Aib][Aib]EGK([TTDS-TTDS-TTDS-γGlu-γGlu-γGlu-Palmitoyl])STFS[αMeK]RAK(Ac)-NH2
As to B6, in data set [3], the “EC50 (nM), OVCAR 5 cells (cAMP)” value was 0.45 nM and the “EMax, OVCAR 5 cells (cAMP)” value came to 96%.

B7: Relaxin peptide analogue of SEQ ID NO: 51 (peptide)
peptide: Ac-LEGREKVRAK(Ac)I[Aib][Aib]EGK([TTDS-TTDS-TTDS-γGlu-γGlu-γGlu-γGlu-Stearoyl])STWS[Aib]RKK(Ac)-NH2
As to B7, in data set [3], the “EC50 (nM), OVCAR 5 cells (cAMP)” value amounted to 0.1 nM and the “EMax, OVCAR 5 cells (cAMP)” value turned out to be 98%.

B8: Relaxin peptide analogue of SEQ ID NO: 56 (peptide)
peptide: Ac-LEGREKVRA[Cit]I[Aib][Aib]EGK([TTDS-TTDS-TTDS-γGlu-γGlu-γGlu-Stearoyl])STFS[αMeK]RAK(Ac)-NH2
As to B8, in data set [3], the “EC50 (nM), OVCAR 5 cells (cAMP)” value worked out at 0.15 nM and the “EMax, OVCAR 5 cells (cAMP)” value is 91%.

B9: KKKK(AcB7-29 C11.23S) (peptide)
peptide: Ac-VIKLSGRELVRAQIAISGMSTWSKKKK-NH2
In the case of B9, in data set [4], the “EC50 (nM), cAMP assay in OVCAR 5 cells” value was 206 nM and the “Emax, cAMP assay in OVCAR 5 cells” value was determined as 84%.

B10: B7-33 C11.23S (peptide)
peptide: H-VIKLSGRELVRAQIAISGMSTWSKRSL-NH2
Turning to B10, in data set [4], the “EC50 (nM), cAMP assay in OVCAR 5 cells” value came to 1640 nM and the “Emax, cAMP assay in OVCAR 5 cells” value came out at 90%.
